Test results taken from PMC9870165, “Structure and neutralization mechanism of a human antibody targeting a complex Epitope on Zika virus” (PLOS Pathogens, 2023).

Legend:
[1] = molecular target: T1, recombinant ZIKV E protein (ectodomain of Zika virus envelope glycoprotein E) (Zika virus; PDB 8DV6 source …); assay: crystal structure; recombinant ZIKV E and G9E Fab mixed 1:1.2 at room temperature for 30 min, complex purified on Superdex 200-increase; crystals in 100 mM HEPES pH 7.5, 10% (w/v) PEG 8000; 3.4 Å; conditions: both partners purified
T1 construct: also called soluble E; E-dimer

[2] = molecular target: T2, ZIKV E protein on wild-type Zika virus H/PF/2013 in culture supernatant (Zika virus strain H/PF/2013, UniProt A0A024B7W1); assay: ELISA; ZIKV capture ELISA: virus (WT or rZIKV-D67N) in culture supernatant captured by plate-bound mAb 4G2; mAbs added 1 h at 37°C; anti-human Fc alkaline phosphatase; signal normalized to ZKA-190; conditions: one partner purified
T2 construct: also called WT ZIKV; ZIKV H/PF/2013; source: ZIKV in culture supernatant

Binder	binding result [1]	binding result [2]
G9E Fab (antigen binding fragment of human monoclonal antibody G9E, wild type) (Fab, V domains shown, also called Fab G9E; G9E WT) VH: RVHLVESGGGVVQPGRSLRLSCVASGFAFSNYHMHWVRQAPGKGLEWVAIIWDDGSDQYYADSVKGRFTISRDNSKNTLFLQMNRLRAEDTALYYCVGGSSAYNGDNGWREAASLDDWGQGTLVTVSS VL: QSALTQPASVSGSPGQSITIFCSGSSNDVGGYNYVSWYQQYPGKVPKLLIYDVNSRPSGVSNRFSGSKSGNTASLTISGLQAEDEADYYCSSYTSRRTWVFGGGTIVTVL	binds	–
HuZV-67, humanized version of the ZIKV specific mouse EDIII mAb ZV-67, IgG1 format (antibody, V domains shown, IgG1; source: Expi293, purified (MabSelect resin)) VH: QAQLQQSGTGLARPGASVKLSCKASGYTFTSYGISWVTQRAGQGLEWIGVIYPRSGNTYYNEKFRGKATLTADKSSSSAYMELRGLTAEDSAVYFCARENYGSVYWGQGTTLTVSS VL: DIVMTQSQKFMSTSVGDRVSITCKASQNVGTAVAWYQQKPGQSPKLLIYSASNRYTGVPDRFTGSGSGTDFTLTISNMQSEDLADYFCQQFSSYPYTFGGGTKLEIK	–	binds
